Reference: patent US20230087785A1, “Leucine-Rich Repeat Kinase 2 Allosteric Modulators” (VIB VZW, priority 2020, published 2023)

T1: LRRK2 Roc domain construct (human, UniProt Q5S007 1329-1520)
T1 construct: not shown: N-terminal His6-tag of pET-28a
T1 sequence: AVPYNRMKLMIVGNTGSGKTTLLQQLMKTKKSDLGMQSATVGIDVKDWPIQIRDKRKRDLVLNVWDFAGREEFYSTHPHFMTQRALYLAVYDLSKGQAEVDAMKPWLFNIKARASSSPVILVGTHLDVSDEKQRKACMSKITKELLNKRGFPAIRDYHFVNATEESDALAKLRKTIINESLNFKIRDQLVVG

T2: LRRK2 RocCOR domain construct (human, UniProt Q5S007 1334-1840)
T2 construct: A second construct (residues 1293-1840, N-terminal His6-MBP) was used in certain screening experiments; not shown: N-terminal Twin-Strep-tag; C-terminal His10-tag
T2 sequence: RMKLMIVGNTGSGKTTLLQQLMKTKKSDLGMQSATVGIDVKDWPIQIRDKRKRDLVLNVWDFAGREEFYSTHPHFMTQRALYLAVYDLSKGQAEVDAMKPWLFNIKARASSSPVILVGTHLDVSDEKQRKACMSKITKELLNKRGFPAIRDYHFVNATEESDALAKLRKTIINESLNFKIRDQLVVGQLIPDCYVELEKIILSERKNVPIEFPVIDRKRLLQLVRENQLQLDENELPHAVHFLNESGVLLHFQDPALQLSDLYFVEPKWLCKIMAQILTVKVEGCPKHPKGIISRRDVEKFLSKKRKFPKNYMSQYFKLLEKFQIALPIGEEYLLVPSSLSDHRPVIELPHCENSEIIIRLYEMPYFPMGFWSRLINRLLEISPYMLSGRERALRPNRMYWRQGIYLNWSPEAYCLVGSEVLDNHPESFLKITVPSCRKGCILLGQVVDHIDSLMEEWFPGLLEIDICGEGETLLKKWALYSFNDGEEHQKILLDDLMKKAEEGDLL


What was measured:
[1] = target: T3, LRRK2(G2019S) (Homo sapiens, UniProt Q5S007, G2019S/M2397T/R50H); assay: In cellulo phospho-Rab / LRRK2 autophosphorylation assay in HEK293T cells; assay type: cell-based; conditions: HEK 293T cells co-expressing LRRK2(G2019S), Rab29 and Nb-GFP; for influence on LRRK2 kinase activity compared to the controls: Western blot
T3 construct: SF tag (FLAG + Twin-Strep); expressed in transfected cells; host or cells: HEK 293T
Procedure: (FIGS. 2A-2C) LRRK2(G2019S) and its effector Rab29 were overexpressed together with GFP-fused Nbs (“Fluobody”) in HEK293T cells. A negative control, where no Nb is overexpressed (“No Nb”) is also included. […] In rows labeled “pLRRK2”, LRRK2 pS1292 levels are determined by Western Blot using a site-specific anti-pLRRK2(pS1292) antibody (Abcam, ab203181) (shown at different times of development). In the rows labeled “pRAB10”, endogenous pT72-Rab10 levels are determined by Western Blot using the MJFF/Abcam antibody MJF-R21 (Abcam, ab230261) (shown at different times of development). The three lower rows contain controls of LRRK2 (rat anti-LRRK2, 24D8), Fluobody (rat anti-GFP) and Rab10 (rabbit anti-Rab10) expression levels. (FIG. 2D) Based on the results of panels (FIGS. 2A-2C) the Nbs can be divided into 4 functional groups, with group 1: Nbs that inhibit both LRRK2 autophosphorylation and Rab10 phosphorylation in cells; group 2: Nbs that inhibit only Rab10 phosphorylation; group 3: Nbs that activate LRRK2 kinase activity; group 4: Nbs that have no consistent/clear effect on LRRK2 kinase activity.
To assess the influence of the Nbs on LRRK2 kinase activity we monitored two physiologically and disease relevant activities of LRRK2: phosphorylation of the endogenous substrate Rab10 at position T72 and LRRK2 autophosphorylation at position S1292 [25-30]. […] In our cellular assay we thus co-expressed LRRK2(G2019S), Rab29 and the different Nb-GFP fusions in HEK 293T cells (FIG. 2a-c).
HEK 293T cells were cultured in DMEM (supplemented with 10% Fetal Bovine Serum, […] L-Glutamine and 0.5% Pen/Strep). For the assay, the cells were seeded onto six-well plates and transfected at a confluency of 50-70% with the individual Nb-GFP expression constructs, SF-tagged LRRK2(G2019S) and FLAG-HA Rab29 using a self-made polyethylenimine (PEI)-based transfection reagent. After 48 hrs cells were lysed in lysis buffer [30 mM Tris-HCL (pH7.4), 150 mM NaCl, 0.5% Nonident-P40, complete protease inhibitor cocktail, phosphatase inhibitor cocktail II & III (all Sigma)]. Lysates were cleared by centrifugation at 10,000×g and adjusted to a protein concentration of 1 μg/μl in 1× Laemmli Buffer. Samples were subsequently subjected to SDS PAGE and Western Blot analysis to determine LRRK2 pS1292 and Rab10 T72 phosphorylation levels, as described below. Total LRRK2 and Rab10 levels were determined as a reference.
For western blot analysis, protein samples were separated by SDS-PAGE using NuPAGE 10% Bis-Tris gels (Invitrogen) and transferred onto PVDF membranes (Thermo Fisher). To allow simultaneous probing for LRRK2 on the one hand and Rab and the Nb-GFP fusions on the other hand, membranes were cut horizontally at the 140 kDa MW marker band. After blocking non-specific binding sites with 5% non-fat dry milk in TBST (1 h, RT) (25 mM Tris, pH 7.4, 150 mM NaCl, 0.1% Tween-20), membranes were incubated overnight at 4° C. with primary antibodies at dilutions specified below. Phospho-specific antibodies were diluted in TBST/5% BSA (Roth GmbH). Non-phospho-specific antibodies were diluted in TBST/5% non-fat dry milk powder (BioRad). Phospho-Rab10 levels were determined by the site-specific rabbit monoclonal antibody anti-pRAB10([…]) (Abcam, ab230261) and LRRK2 autophosphorylation was determined by the site-specific rabbit monoclonal antibody anti-pLRRK2(pS1292) (Abcam, ab203181), both at a dilution of 1:2,000. Total LRRK2 levels were determined by the in-house rat monoclonal antibody anti-pan-LRRK2 (clone 24D8; 1:10,000). Total Rab10 levels were determined by the rabbit monoclonal antibody anti-RAB10/ERP13424 (Abcam, ab181367) at a dilution of 1:5,000. Nb-GFP fusion proteins were detected using the rat monoclonal antibody anti-GFP (clone 3H9, ChromoTec) at a dilution of 1:2,000. For detection, goat anti-rat IgG or anti-rabbit IgG HRP-coupled secondary antibodies (Jackson ImmunoResearch) were used at a dilution of 1:15,000 in TBST/5% non-fat dry milk powder. […]

[2] = target: T1, LRRK2 Roc domain construct; assay: ELISA, antigen coated on the plate, purified Nb detected via its EPEA tag
From the text: (§1) We recombinantly expressed and purified the RocCOR, Roc, COR-B and kinase-WD40 (K-WD40) domain constructs of LRRK2 (FIG. 7). Subsequently, we performed an ELISA in which all these domain constructs were coated in parallel next to each other in the same ELISA plate, and where we subsequently detected binding of the 42 purified Nbs. […] To enrich in Nbs directed against the Roc domain we specifically included a selection step with either Roc-GTPγS or Roc-GDP.

[3] = target: T4, LRRK2 COR-B construct (C-terminal part of the COR domain), His6-MBP tagged (human, UniProt Q5S007 1672-1840); assay: as above
T4 construct: also called (MBP-)COR-B; not shown: N-terminal His6-MBP-tag of pDEST-566
From the text: as §1

[4] = target: T2, LRRK2 RocCOR domain construct; assay: as above
From the text: as §1

T3 sequence (Q5S007 whole entry R50H/G2019S/M2397T): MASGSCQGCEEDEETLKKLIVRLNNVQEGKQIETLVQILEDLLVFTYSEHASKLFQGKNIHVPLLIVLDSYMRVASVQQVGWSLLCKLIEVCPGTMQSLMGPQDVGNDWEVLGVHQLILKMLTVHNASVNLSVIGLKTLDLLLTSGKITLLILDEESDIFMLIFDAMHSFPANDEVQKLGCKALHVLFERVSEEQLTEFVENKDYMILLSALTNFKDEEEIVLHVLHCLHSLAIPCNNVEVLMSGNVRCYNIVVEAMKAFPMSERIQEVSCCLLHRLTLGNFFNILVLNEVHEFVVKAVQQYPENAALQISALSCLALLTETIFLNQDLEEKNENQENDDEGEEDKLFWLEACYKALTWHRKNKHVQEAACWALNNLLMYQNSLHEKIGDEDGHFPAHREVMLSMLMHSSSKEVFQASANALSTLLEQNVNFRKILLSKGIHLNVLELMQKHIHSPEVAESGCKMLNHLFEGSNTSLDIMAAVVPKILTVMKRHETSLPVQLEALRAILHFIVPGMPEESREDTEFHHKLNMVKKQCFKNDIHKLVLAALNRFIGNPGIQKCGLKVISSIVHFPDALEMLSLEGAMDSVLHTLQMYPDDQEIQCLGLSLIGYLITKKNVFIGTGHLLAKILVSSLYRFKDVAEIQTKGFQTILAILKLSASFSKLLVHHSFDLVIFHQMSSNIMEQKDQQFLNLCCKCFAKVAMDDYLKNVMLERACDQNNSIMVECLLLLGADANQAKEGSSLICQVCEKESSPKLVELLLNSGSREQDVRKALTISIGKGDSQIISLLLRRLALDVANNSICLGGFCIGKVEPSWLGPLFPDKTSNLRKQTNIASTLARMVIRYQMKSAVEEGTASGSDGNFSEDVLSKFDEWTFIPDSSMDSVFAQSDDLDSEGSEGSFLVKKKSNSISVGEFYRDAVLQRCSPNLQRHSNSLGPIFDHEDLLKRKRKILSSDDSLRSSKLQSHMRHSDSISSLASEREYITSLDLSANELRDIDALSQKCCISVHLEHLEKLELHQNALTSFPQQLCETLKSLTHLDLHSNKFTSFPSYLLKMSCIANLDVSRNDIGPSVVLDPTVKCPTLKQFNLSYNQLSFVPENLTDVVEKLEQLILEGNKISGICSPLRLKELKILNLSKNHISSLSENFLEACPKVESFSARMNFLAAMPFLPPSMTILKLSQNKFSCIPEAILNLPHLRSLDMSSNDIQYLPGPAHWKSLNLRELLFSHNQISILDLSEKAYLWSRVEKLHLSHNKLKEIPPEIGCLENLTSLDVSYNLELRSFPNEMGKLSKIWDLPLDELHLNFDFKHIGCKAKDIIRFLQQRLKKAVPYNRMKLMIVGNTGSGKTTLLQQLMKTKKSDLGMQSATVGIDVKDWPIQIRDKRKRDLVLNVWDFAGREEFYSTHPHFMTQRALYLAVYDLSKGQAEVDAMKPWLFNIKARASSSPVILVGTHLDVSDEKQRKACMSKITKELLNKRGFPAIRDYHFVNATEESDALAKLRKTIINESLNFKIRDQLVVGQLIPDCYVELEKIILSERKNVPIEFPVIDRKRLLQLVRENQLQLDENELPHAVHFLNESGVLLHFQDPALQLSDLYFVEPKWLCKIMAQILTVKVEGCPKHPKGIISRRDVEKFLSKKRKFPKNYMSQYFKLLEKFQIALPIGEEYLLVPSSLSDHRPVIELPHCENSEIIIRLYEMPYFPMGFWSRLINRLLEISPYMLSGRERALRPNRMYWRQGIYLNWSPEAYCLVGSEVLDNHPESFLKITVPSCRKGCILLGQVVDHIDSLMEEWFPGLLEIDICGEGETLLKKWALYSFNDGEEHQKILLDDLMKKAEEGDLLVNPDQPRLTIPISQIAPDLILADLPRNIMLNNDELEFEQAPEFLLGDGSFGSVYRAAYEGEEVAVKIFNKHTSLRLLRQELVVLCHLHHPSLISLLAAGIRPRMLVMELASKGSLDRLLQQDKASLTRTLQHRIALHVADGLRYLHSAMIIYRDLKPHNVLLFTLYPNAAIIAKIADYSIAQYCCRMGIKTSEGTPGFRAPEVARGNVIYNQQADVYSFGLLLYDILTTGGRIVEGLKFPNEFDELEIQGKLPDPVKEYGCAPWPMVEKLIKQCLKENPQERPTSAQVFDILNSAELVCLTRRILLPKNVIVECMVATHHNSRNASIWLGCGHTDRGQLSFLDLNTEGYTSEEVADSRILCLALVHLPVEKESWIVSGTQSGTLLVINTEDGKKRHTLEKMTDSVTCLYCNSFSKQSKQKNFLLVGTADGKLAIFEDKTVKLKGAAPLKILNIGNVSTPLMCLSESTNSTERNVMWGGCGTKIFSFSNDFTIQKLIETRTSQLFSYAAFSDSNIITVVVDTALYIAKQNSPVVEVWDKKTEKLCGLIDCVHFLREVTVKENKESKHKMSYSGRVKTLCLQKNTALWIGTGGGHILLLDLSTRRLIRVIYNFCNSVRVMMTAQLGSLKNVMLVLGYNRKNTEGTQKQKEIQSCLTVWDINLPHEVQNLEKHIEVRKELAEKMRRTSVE

Molecule	influence on LRRK2 kinase activity compared to the controls [1]	LRRK2 autophosphorylation at position S1292 [1]	further results
Nb10: LRRK2-specific Nanobody, SEQ ID NO: 15 (protein, Nanobody CA13599) VHH: MAQVQLVESGGGLVQPGGSLRLSCAASGSIFSIYAMGWYRQAPGKQRELVAAITSGGDTNYADSVKGRFTISRDNAKNTVYLQMNSLKPEDTAVYYCNADHTPAGTFQTFDYWGQGTQVTVSS	no influence on LRRK2 kinase activity		
Nb41: LRRK2-specific Nanobody, SEQ ID NO: 12 (protein, Nanobody CA14136) VHH: MAQVQLVESGGGLVQAGGSLRLSCEASVRTFSFYSMGWFRQAPGKEREFVAAIRWTAGSTSYADIVKGRFTISRDNGKNTVVLQMNSLEPEDTGVYYCAAQRGYLVEAASREYDYWGQGTQVTVSS	strongly decreased LRRK2 autophosphorylation and/or Rab10 phosphorylation	inhibiting S1292 phosphorylation at a lesser extent	Rab10 phosphorylation at position T72 ([1]; endogenous Rab10): inhibit Rab10 phosphorylation
Nb3: LRRK2-specific Nanobody, SEQ ID NO: 11 (protein, Nanobody CA12614) VHH: MAQVQLVESGGGLVQPGGSLRLSCAASGSIFRRNAMGWYRQVTGKERELVAGITSGGYTNYRDFVKGRFTISRDNAKNTVYLQMNNLKPEDTAVYYCNLLSEMLQTVWGQGTQVTVSS	no influence on LRRK2 kinase activity	somewhat stronger inhibitory effect towards LRRK2 autophosphorylation	
Nb31: LRRK2-specific Nanobody, SEQ ID NO: 13 (protein, Nanobody CA13620) VHH: MAQVQLVESGGGLVQAGGSLRLSCATSGLTFGTYAMAWFRQAAEKEREFVAFISGRGGYRDYADSVKGRLTIFRDNAKNNAKNTVYLQMNNLKPEDTAVYYCAARQGSPVRSKEEYNNWGQGTQVTVSS	no influence on LRRK2 kinase activity		
Nb13: LRRK2-specific Nanobody, SEQ ID NO: 16 (protein, Nanobody CA13602) VHH: MAQVQLVESGGGLVQPGGSLRLSCAASGSGFSIYAMGWARQAPGRQRELVAAITSGGSTNYADSVKGRFTISRDNAKNTVYLQMNSLKPEDTAVYYCNADITVVAGSTYDYWGQGTQVTVSS	no influence on LRRK2 kinase activity		
Nb9: LRRK2-specific Nanobody, SEQ ID NO: 17 (protein, Nanobody CA13598) VHH: MAQVQLVESGGGLVQPGGSLRLSCAASGSIFSINAMGWYRQAPGKQRELVAAITSGGRTNYADSVRGRFTISRDHAKNTVYLQMNSLKPEDTAVYYCNAGDWQTMYDYWGQGTQVTVSS	no influence on LRRK2 kinase activity		
Nb37: LRRK2-specific Nanobody, SEQ ID NO: 14 (protein, Nanobody CA14131) VHH: MAQVQLVESGGGLVQPGGSLRLSCAASGSVFSTNTMAWFRQAPGKQREWVGGITPGGFTNYINSVKGRFTISRDNANNTIYLQMSSLRPEDTAVYYCNTLSRMALWGQGTQVTVSS	no influence on LRRK2 kinase activity	somewhat stronger inhibitory effect towards LRRK2 autophosphorylation	
Nb9 (CA13598) (VHH) VHH: QVQLVESGGGLVQPGGSLRLSCAASGSIFSINAMGWYRQAPGKQRELVAAITSGGRTNYADSVRGRFTISRDHAKNTVYLQMNSLKPEDTAVYYCNAGDWQTMYDYWGQGTQVTVSS			binding result [2]: no binding (tested: not given); binding result [3]: no binding (tested: not given); binding result [4]: no binding (tested: not given)
Nb28: LRRK2-specific Nanobody, SEQ ID NO: 18 (protein, Nanobody CA13617) VHH: MAQVQLVESGGGLVQAGGSLRLSCAASGIIFHWYDMDWYRQAPGKQRELVATITTGGRADYADFVKGRFSISRDNAKTTVYLQMNSLKPEDTAVYYCSFQDHVLRRWGQGTQVTVSS	significant increase of LRRK2 kinase activity		
